Measured values: US20190262327A1, “COMBINATION OF A BACE INHIBITOR AND AN ANTIBODY OR ANTIGEN-BINDING FRAGMENT FOR THE TREATMENT OF A DISORDER ASSOCIATED WITH THE ACCUMULATION OF AMYLOID BETA” (ASTRAZENECA AB, priority 2016, published 2019)
Substitutions are numbered along the chain they refer to.

B1: Abet0380: optimized anti-Aβ1-42 clone derived from Abet0144-GL, non-germlined (protein)
scFv (part 1 of 2): EVQLLESGGGLVQPGGSLRLSCAASMGNFNYQTMWWVRQAPGRGLEWVSVIGKTNENIAYADSVKGRFTISRDNSKNTLYLQMNSLRAEDTAVYYCAREWMDHSRPYYYYGMDVWGQGTLVTVSS
scFv (part 2 of 2): SYELTQPPSVSVSPGQTASITCSGHNLEDKFASWYQQKPGQSPVLVIYRDDKRPSGIPERFSASNSGHTATLTISGTQATDEADYYCSSQDTVTRVFGGGTKLTVL
modifications: left off: small tags and cut ends
notes: optimized anti-Aβ1-42 clone derived from Abet0144-GL, non-germlined
B2: Abet0374: optimized anti-Aβ1-42 clone derived from Abet0144-GL (protein)
scFv (part 1 of 2): EVQLLESGGGLVQPGGSLRLSCAASGFQFKDTPMWWVRQAPGKGLEWVSVIGDQNHKKAYADSVKGRFTISRDNSKNTLYLQMNSLRAEDTAVYYCAREWMDHSRPYYYYGMDAWGQGTLVTVSS
scFv (part 2 of 2): B1 scFv (part 2 of 2) with S13T, E28G, D29G, S66F
modifications: left off: small tags and cut ends
notes: optimized anti-Aβ1-42 clone derived from Abet0144-GL
B3: Abet0378: optimized anti-Aβ1-42 clone; amber stop codon at VL position 91 read as glutamine (protein)
scFv (part 1 of 2): EVQLLESGGGLVQPGGSLRLSCAASGFPFETDIMWWVRQAPGKGLEWVSVIGTNTDNVAYADSVKGRFTISRDNSKNTLYLQMNSLRAEDTAVYYCAREWMDHSRPYYYYGMDVWGQGTLVTVSS
scFv (part 2 of 2): B1 scFv (part 2 of 2)
modifications: left off: small tags and cut ends
notes: optimized anti-Aβ1-42 clone; amber stop codon at VL position 91 read as glutamine
B4: Abet0321b: optimized anti-Aβ1-42 clone derived from Abet0144-GL (protein)
scFv (part 1 of 2): EVQLLESGGGLVQPGGSLRLSCAASAYHSNHDPMWWVRQAPGKGLEWVSVIGSSGGTTAYADSVKGRFTISRDNSKNTLYLQMNSLRAEDTAVYYCAREWMDHSRPYYYYGMDVWGQGTLVTVSS
scFv (part 2 of 2): B1 scFv (part 2 of 2) with V46I
modifications: left off: small tags and cut ends
notes: as for B2
B5: Abet0381: optimized anti-Aβ1-42 clone derived from Abet0144-GL (protein)
scFv (part 1 of 2): EVQLLESGGGLVQPGGSLRLSCAASSPSFPRETMWWVRQAPGKGLEWVSVIGTQPNRLTYADSVKGRFTISRDNSKNTLYLQMNSLRAEDTAVYYCAREWMDHSRPYYYYGIDVWGQGTLVTVSP
scFv (part 2 of 2): B1 scFv (part 2 of 2) with V12A, A32V, D84N, V96A
modifications: left off: small tags and cut ends
notes: as for B2
B6: Abet0377: optimized anti-Aβ1-42 clone from quaternary library (protein)
scFv (part 1 of 2): B1 scFv (part 1 of 2) with M26G, G27F, Y31E, M34L, R43K, K53V, T54G, N55T, E56K, S63T
scFv (part 2 of 2): B1 scFv (part 2 of 2) with L27T, D29H, F31W, A32I, S64T
modifications: left off: small tags and cut ends
notes: optimized anti-Aβ1-42 clone from quaternary library
B7: Abet0373: optimized anti-Aβ1-42 clone derived from Abet0144-GL (protein)
scFv (part 1 of 2): EVQLLESGGGLVQPGGSLRLSCVASGFDFERSVMWWVRQAPGKRLEWVSVIGSGKTNITYADSVKGRFTISRDNSKNTLYLQMNSLRAEDTAVYYCAREWMDHSRPYYYYGMDVWGQGTLVTVSS
scFv (part 2 of 2): B1 scFv (part 2 of 2) with G56E
modifications: left off: small tags and cut ends
notes: as for B2
B8: Abet0319: optimized anti-Aβ1-42 clone derived from Abet0144-GL (protein)
scFv (part 1 of 2): B4 scFv (part 1 of 2) with A26V, Y27S, H28V, S29Y, H31K, P33T, A59V
scFv (part 2 of 2): B1 scFv (part 2 of 2) with L27I, E28M, F31W, A32V, Q41R, V44A
modifications: left off: small tags and cut ends
notes: as for B2
B9: Abet0369: optimized anti-Aβ1-42 clone derived from Abet0144-GL (protein)
scFv (part 1 of 2): EVQLLESGGGLVQPGGSLRLSCAASSFQISKNTMWWVRRAPGKGLEWVSVIGKDETRFNYADSVKGRFTISRDNSKNTLYLQMNSLRAEDTAVYYCAREWMDHSRPYYYYGMDVWGQGTLVTVSS
scFv (part 2 of 2): B1 scFv (part 2 of 2) with E3G, H25R, L27I, E28G, K30S, F31W, A32V, S33A
modifications: left off: small tags and cut ends
notes: as for B2
B10: Abet0379: optimized anti-Aβ1-42 clone derived from Abet0144-GL (protein)
scFv (part 1 of 2): EVQLLESGGGLVQPGGSLRLSCAASGFDFAETPLWWVRQAPGERLEWVSVIGSNQNKTAYADSVKGRFTISRDNSKDTLYLQMNSLRAEDTAVYYCAREWMDHSRPYYYYGMDVWGQGTLVTVSS
scFv (part 2 of 2): B1 scFv (part 2 of 2) with S1Q, Y2S, E3V, P39S, E82G, S88A, S89T, T92N, V93F
modifications: left off: small tags and cut ends
notes: as for B2
B11: Abet0372: optimized anti-Aβ1-42 clone derived from Abet0144-GL (protein)
scFv (part 1 of 2): EVQLLESGGGLVQPGGSLRLSCAASSDMFNIETMWWVRQAPGKGLEWVSVIGKGMNNVSYADSVKGRFTISRDNSKNTLYLQMNSLRAEDTAVYYCAREWMDHSRPYYYYGMDVWGQGTLVTVSS
scFv (part 2 of 2): B1 scFv (part 2 of 2)
modifications: left off: small tags and cut ends
notes: as for B2
B12: Abet0383: optimized anti-Aβ1-42 clone derived from Abet0144-GL (protein)
scFv (part 1 of 2): EVQLLESGGGLVQPGGSLKLSCAASGFTFDWYPMWWVRQAPGKRLEWISVIGADNAKIAYADSVKGRFTISRDNSKNTLYLQMNSLRAEDTAVYYCAREWMGHSRPYYYYGMDVWGQGTPVTVSS
scFv (part 2 of 2): B1 scFv (part 2 of 2) with E28G
modifications: left off: small tags and cut ends
notes: as for B2

Experiments:
[1] = molecular target: T1, human Amyloid beta 1-42 peptide (Homo sapiens, UniProt P05067); test: Abet0144-GL HTRF epitope competition assay; assay type: binding; details: purified competitor scFv; inhibition of human Amyloid beta 1-42 : Abet0144-GL IgG1-TM complex
T1 construct: biotinylated human Amyloid beta 1-42 peptide (rpeptide, USA; cat: A1117); purchased rPeptide, USA A1117; host or cells: synthetic peptide
Procedure: Two thousand and twenty four scFv chosen at random from selection rounds 3 and 4 of the targeted mutagenesis approach described in section 1.2 were expressed in bacteria to produce unpurified periplasmic scFv. Those scFv capable of binding synthetic human amyloid beta 1-42 peptide via the same epitope as Abet0144-GL IgG1-TM were elucidated in a competition format assay, using the HTRF™ platform. Specifically, fluorescence resonance energy transfer (FRET) was measured between streptavidin cryptate (associated with biotinylated amyloid beta 1-42 peptide) and anti-human Fc XL665 (associated with Abet0144-GL IgG1-TM) in the presence of a single concentration of each unpurified periplasmic test scFv.
A ‘Total’ binding signal was determined by analysing the binding of Abet0144-GL IgG1-TM to synthetic human Amyloid beta 1-42 peptide in the absence of competitor peptide. The ‘Sample’ signals were derived from analysing the binding of Abet0144-GL IgG1-TM to synthetic human Amyloid beta 1-42 peptide in the presence of a test scFv sample. Finally, a ‘Cryptate Blank’ signal was determined by analysing the fluorescence mediated by the detection reagent cocktail alone.
Unpurified periplasmic scFv were supplied in sample buffer consisting of 50 mM MOPS, pH 7.4, 0.5 mM EDTA, and 0.5 M sucrose. […] Assay plates were sealed and then incubated for 3 hours at room temperature in the dark, prior to measuring time-resolved fluorescence at 620 and 665 nm emission wavelengths on a fluorescence plate reader.
Data were analysed by calculating % Delta F values for each sample. % Delta F was determined according to equation 1. […]
Data were again analysed by calculating the % Delta F and % Total binding values for each sample. In addition, a % Inhibition value for each concentration of purified scFv was also calculated as described in Equation 3: […]

[2] = molecular target: T1, human Amyloid beta 1-42 peptide; test: Surface Plasmon Resonance kinetic profiling of purified scFv (ProteOn); assay type: binding; details: biotinylated human Amyloid beta 1-42 on streptavidin chip
Text: Surface Plasmon Resonance was used to analyse the purified scFv clones that had shown significant improvement in binding affinity for human Amyloid beta 1-42 peptide over the parent sequence, Abet0144-GL, in the HTRF™ epitope competition assay (sections 1.3-1.6). Briefly, the ProteOn Protein Interaction Array System (BioRad, USA) was used to assess the kinetic parameters of the interaction between each purified scFv and synthetically produced human Amyloid beta 1-42 peptide. These experiments were performed essentially as described by Karlsson et al. (Karlsson et al., 1991).
The affinity of binding between each test scFv and human Amyloid beta 1-42 was estimated using assays in which biotinylated synthetic human Amyloid beta 1-42 peptide (rPeptide, USA; cat: Al 117) was non-covalently bound via a biotin/streptavidin interaction to a proprietary streptavidin chip (NTA 176-5021) at five different surface densities. The chip surface was regenerated between cycles by a single 60 second injection of 10 mM Glycine pH 2.0 to remove scFv bound to the peptide.
Each scFv at 100-200 nM was sequentially passed over the peptide surface for a sufficient amount of time to observe sensorgrams that could be fitted to an appropriate binding model with confidence. An irrelevant scFv blank was subtracted from the main dataset to reduce the impact of any buffer artefacts or non-specific binding effects. An appropriate binding model was then fitted to the data.

T1 sequence (P05067 672-713): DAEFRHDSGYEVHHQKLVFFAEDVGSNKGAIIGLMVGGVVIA

Molecule | potency over the parent Abet0144-GL scFv sequence (FIG. 1) [1] | ka [2] | kd [2] | ka ([2]; listed as Abet0380 scFv) | kd ([2]; listed as Abet0380 scFv)
B1 | significant improvement in potency | 193000 M⁻¹ s⁻¹ | 2.85e-05 s⁻¹ | 193000 M⁻¹ s⁻¹ | 2.85e-05 s⁻¹
B2 | – | 256000 M⁻¹ s⁻¹ | 6.04e-05 s⁻¹ | – | –
B3 | – | 136000 M⁻¹ s⁻¹ | 6.41e-05 s⁻¹ | – | –
B4 | – | 150000 M⁻¹ s⁻¹ | 3.33e-05 s⁻¹ | – | –
B5 | – | 213000 M⁻¹ s⁻¹ | 5.14e-05 s⁻¹ | – | –
B6 | significant improvement in potency | 196000 M⁻¹ s⁻¹ | 3.02e-05 s⁻¹ | – | –
B7 | – | 185000 M⁻¹ s⁻¹ | 8.92e-05 s⁻¹ | – | –
B8 | – | 329000 M⁻¹ s⁻¹ | 0.000129 s⁻¹ | – | –
B9 | significant improvement in potency | 327000 M⁻¹ s⁻¹ | 4.34e-05 s⁻¹ | – | –
B10 | – | 134000 M⁻¹ s⁻¹ | 4.39e-05 s⁻¹ | – | –
B11 | – | 243000 M⁻¹ s⁻¹ | 0.000176 s⁻¹ | – | –
B12 | – | 181000 M⁻¹ s⁻¹ | 3.94e-05 s⁻¹ | – | –
